Entries after “also recorded” stand apart in the source; their conditions may differ. Blank lines part the entries; values can stand above or below the molecule they belong to. Where no end group is shown, it is not given here.
What was measured:
[1] = molecular target: T1, cortactin SH3 domain (Mus musculus, UniProt Q60598); experiment: NMR affinity determination, binding of peptides to purified cortactin-SH3; details: for loss of affinity: mutant versus Pyk2-PRR2
T1 construct: nucleotides1468-1641); 6xHis (N, cleaved yes); made in house; host or cells: E. coli BL21 (DE3)
Procedure: The DNA sequence encoding the SH3 domain of the mouse cortactin SH3 domain (GenBank ID U03184; nucleotides1468-1641) was sub-cloned into a pET-28a plasmid (Novagen, Merck) in frame with the cleavable N-terminal 6×His tag. Isotopically labeled cortactin-SH3 for heteronuclear NMR experiments was expressed in transformed E. coli BL21 cells (DE3) grown in the presence of kanamycin (50 mg/1) and chloramphenicol (34 mg/1) at 37° C. in M9 minimal medium. For ^15N (^13C) labeling the medium contained 1 g/L of ^15NH4Cl (4 g/L ^13C6-glucose), and 0.25 g/l of appropriately labeled Celtone Base Powder (Cambridge Isotope Laboratories, Andover, MA) was added. For triple-labeled ^2H,^13C,^15N—SH3, expression began in 100 ml of the above medium grown to an OD600 of 0.4-0.5 and gently centrifuged. Pellets were then resuspended in 500 ml filter-sterilized D20-based ^15N-M9 supplemented with ^2H7-^13C6-glucose (2 g/1) and DCN-Isogro (0.25 g/1) to reach a final OD600 of −0.1. In both cases cells were then grown at 37° C. and induced with 0.5 mM isopropyl β-D-1-thiogalactopyranoside (IPTG) upon reaching OD600-0.8, followed by overnight growth at 27° C. To purify the SH3 domain, cells were harvested by centrifugation, subjected to a single freeze-thaw cycle, and resuspended in lysis buffer (50 mM NaPi pH 8.0, 300 mM NaCl, 1 mM dithiothreitol (DTT), 100 ml per liter of culture) supplemented with 1 tablet EDTA-free protease inhibitor cocktail (Merck) and benzamidine (5 mM). Cells were lysed by French press, followed by addition of benzamidine (final concentration 10 mM) and phenylmethylsulfonyl fluoride (PMSF, 1 mM), and the lysate was clarified by centrifugation. The supernatant was loaded on a HisTrap HP column (GE Healthcare, Chicago, IL, USA) equilibrated with lysis buffer and the protein eluted through a gradient (Buffer B: 50 mM NaPi pH 8.0, 100 mM NaCl, 300 mM imidazole, 1 mM DTT). To the fraction eluting at ˜40% B purified tobacco etch virus (TEV) protease (1:30 mol:mol) was added, and the mixture dialyzed overnight at 4° C. against dialysis buffer (50 mM NaPi at pH 8.0, 100 mM NaCl, 1 mM DTT). The dialysate was brought to a final concentration of ˜5 mM imidazole, filtered, and loaded onto a HisTrap column. The collected flowthrough was dialyzed against 20 mM Tris (pH 7.5), 1 mM DTT for 3 h to reach a final concentration of 10 mM NaCl. […]
Purified SH3 was dialyzed against NMR sample buffer (30 mM NaPi, pH ˜6.5) and concentrated to the desired concentration in an Amicon concentration tube (3 kDa MWCO) (Merck). […] For quantitative titrations, purchased peptides were dissolved in 100-300 μl NMR sample buffer, and samples at varying (SH3:PRR2 1:0-1:6, SH3 concentration constant at 0.1 mM) ratios were prepared. Fittings were performed with 5-6 measured points. […]

[2] = system: MDA-MB-231 cells; experiment: 2D single-cell random migration assay; type: cell-based, human; details: highest (higher) peptide concentration; 12 hours; compared to control peptide; data not shown
Procedure: The 2D single-cell random migration assay was performed as previously described in Genna et al. Pyk2 and FAK differentially regulate invadopodia formation and function in breast cancer cells. J Cell Biol 2018; 217: 375-395. In brief, 6-well microtiter plates were coated with 10 μg/ml fibronectin and blocked with 1% denatured BSA. Peptide pre-treated cells were plated at 20,000 cells/well in DMEM/10% FBS containing peptides and allowed to adhere for 12-16 h. Plates were placed in a 37° C. heated chamber, and images were collected using the IncuCyte® Zoom platform (Essen Bioscience, Ann Arbor, MI, USA; 20×, NA 0.60, air objective). Phase images were collected every one hour for a total of 12 h using the IncuCyte® acquisition software. Trajectory plots, accumulated distance (total cell path length), Euclidean distance (the shortest distance between the starting point and endpoint of migration), and velocity were calculated using the chemotaxis and migration tool (ibidi GMBH, Grafelfing, Germany).

[3] = system: MDA-MB-231 cells; experiment: Invadopodium precursor formation assay; type: cell-based, human; details: at higher peptide concentrations
Procedure: The invadopodium precursor formation assay was performed as described in Genna et al., 2018 (supra). Briefly, gelatin was conjugated to Alexa 405 dye (Thermo Fisher Scientific). MatTek dishes were treated with 1 N HCl and coated with 50 μg/ml poly-L-lysine. A 0.2% gelatin solution was prepared in PBS, and a 1:20 mixture of Alexa 405-labeled gelatin/unlabeled gelatin was warmed to 37° C. before addition to the poly-L-lysine coated plates. Gelatin was cross-linked with 0.01% glutaraldehyde followed by quenching with 5 mg/ml sodium borohydride. 125,000 MDA-MB-231 cells were plated on Alexa 405-labeled gelatin plates in the presence of 0.1, 1, or 5 μM of Pyk2-PRR peptides or scrambled control for 4 h. At the end of incubation, cells were fixed in 3.7% paraformaldehyde, permeabilized with 0.1% Triton X-100, blocked with 1% FBS, 1% BSA in PBS, and labeled with anti-Tks5 and anti-cortactin. Images were acquired using an inverted fluorescent microscope (Leica AF6000; 63×, NA 1.4, oil objective, Leica LAS AF acquisition software) (Wetzlar, Germany) equipped with an ORCA-Flash 4.0 V2 digital CMOS camera (Hamamatsu Photonics, Shizuoka, Japan).

[4] = system: MDA-MB-231 cells; experiment: 3D scratch wound assay in Matrigel; type: cell-based, human; details: MMP inhibitor, 25 µM
Procedure: The 3D scratch wound assay was performed as described in Meirson et al. Targeting invadopodia-mediated breast cancer metastasis by using ABL kinase inhibitors. Oncotarget 2018; 9: 22158-22183. Briefly, 96 well Image Lock microtiter plates (Essen Bioscience) were coated with 100 μg/ml Matrigel (cat #354234; Corning, New-York, NY, USA). Following overnight incubation at 37° C., MDA-MB-231 cells were plated at a final concentration of 350,000 cells/ml and allowed to adhere for 12-16 h in the presence of Pyk2-PRR or control peptides. Following wounding of the bottom Matrigel-cells layer, a top layer of Matrigel was added to a final concentration of 2 mg/ml and allowed to polymerize for 30 min at 37° C. Pyk2-PRR or control scrambled peptides were then added again in DMEM/10% FBS to a final concentration of 0.1, 1, or 5 μM, with or without the MMP inhibitor GM6001 ([…]). Plates were placed in a 37° C. heated chamber, and images were collected using the IncuCyte® Zoom platform (Essen Bioscience; 20×, NA 0.60, air objective). Phase images were collected every one hour for a total of 12 h using the IncuCyte® acquisition software.

[5] = molecular target: T2, cortactin-SH3 domain (mouse cortactin SH3 domain, GenBank ID U03184; nucleotides 1468-1641) (mouse, UniProt Q60598 490-546, isotopically labeled (15N, 13C and/or 2H) for NMR); experiment: NMR chemical shift titration (1H,15N-HSQC)
T2 construct: domain: SH3 domain; also called purified cortactin-SH3
T2 sequence (Q60598 490-546 limits assumed): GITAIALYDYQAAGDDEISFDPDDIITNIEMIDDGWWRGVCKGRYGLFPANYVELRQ

[6] = molecular target: T2, cortactin-SH3 domain (mouse cortactin …); experiment: NMR chemical shift titration (1H,15N-HSQC), unlabeled peptide into 15N-SH3

Kd ([1]; capped Pyk2-PRR2 derivatives, NMR titration isotherm, unit inferred): 15 ± 2 µM
Molecule: CC(=O)N[C@@H](C(=O)N[C@H](C)C(=O)N[C@H](Cc1ccccc1)C(=O)N[C@H](CCC(N)=O)C(=O)N[C@@H](CCC(=O)O)C(=O)N1CCC[C@H]1C(=O)N1CCC[C@H]1C(=O)N1CCC[C@H]1C(=O)N[C@@H](CCCCN)C(=O)N1CCC[C@H]1C(=O)N[C@@H](CO)C(=O)N[C@@H](CCCNC(=N)N)C(=O)N1CCC[C@H]1C(=O)N[C@@H](CCCCN)C(=O)N[C@@H](Cc1ccc(O)cc1)C(=O)N[C@H](CCCNC(=N)N)C(=O)N1CCC[C@@H]1C(=O)N1CCC[C@@H]1C(=O)N1CCC[C@@H]1C(N)=O)[C@H](C)O [SEQ ID NO: 9, TAFQEPPPKPSRPKYRPPP]

Molecule: EFTGPPQKPPRLGAQS [Pyk2-PRR3, EFTGPPQKPPRLGAQS]
2D motility (accumulated and Euclidean distances, velocity) [2]: reduced 2D motility; also recorded: minor effect
invadopodia formation and maturation [3]: minor effect

loss of affinity [1]: 3.5 fold
Molecule: TAFQEPPPKPSRPKARPPP [Y722A, Pyk2-PRR2 708-726 with Y722A substitution]

loss of affinity [1]: 27 fold
Molecule: TAFQEPPPKPSR [Δ720-726 deletion mutant, Pyk2-PRR2 truncated to positions 708-719]

Molecule: CNC(=O)[C@H](Cc1c[nH]c2ccccc12)NC(=O)[C@@H](CC(=O)NO)CC(C)C [GM6001, reference compound]
ECM invasion [4]: fully inhibited

Kd [5]: 8 µM
Molecule: HAIYPRHTAFQEPPPKPSRPKYRPPP-NH2 [Tf-tag-Pyk2-PRR2, HAIYPRHTAFQEPPPKPSRPKYRPPP-NH2 (SEQ ID NO: 7 + C-term cap)]

Kd [5]: 2 µM
B1: Pyk2-PRR2-Tf-tag, Ac-TAFQEPPPKPSRPKYRPPPHRPYIAH (SEQ ID NO: 8 + N-term cap) (peptide)
peptide: Ac-TAFQEPPPKPSRPKYRPPPHRPYIAH
notes: Pyk2-PRR2 (human Pyk2 708-726) followed by a C-terminal tag printed as HRPYIAH, the reverse of the Tf tag

Kd [6]: 650 µM
B2: Pyk2-PRR3 peptide (SEQ ID NO: 2) (peptide)
peptide: EFTGPPQKPPRLGAQS
notes: Unlabeled synthetic peptide as used in the NMR titration

From US20240368566A1, “PYK2-DERIVED PEPTIDES FOR INHIBITING INVADOPODIA-MEDIATED CANCER METASTASIS” (BAR-ILAN UNIVERSITY, priority 2023, published 2024)
